Test results from US20120253008A1 (Ablynx, published 2012).

The binders below were run against T1, human serum albumin (human, UniProt P02768 25-609) (assay: phage ELISA and/or solution binding competition ELISA on HSA).
T1 construct: also called HSA
AAYYFDYDVFGGGTPEGT [PMP56C1]: binds.
AALYRDYDVFGGGTQVGE [PMP54G3 (SEQ ID NO: 49)]: binds.
AAMYYDYDVFGGGTPTGA [PMP56C5]: binds.
AAYYYDYDVFGGGTPGGE [PMP54G3 (SEQ ID NO: 44)]: binds.
AAWYTDYDVFGGGTPQGG [PMP56F1]: binds.
AAYYFDYDVFGGGTPEGT [PMP56G1]: binds.
AARYYDYDVFGGGTPLGG [PMP56G6]: binds.
AAFYWDYDVFGGGTDPGA [PMP56G3]: binds.
AARYWDYDVFGGGTPQGE [PMP56C2]: binds.
AALYKDYDVFGGGTPGGE [PMP56D4]: binds.
AALYRDYDVFAGGTPGGG [PMP54E2]: binds.
AAWYRDYDVFGGGTDEGS [PMP54B1]: binds.
AARYFDYDVFGGGTDLGD [PMP54D2]: binds.
AATYFDYDVFGGGTAVGS [PMP54G1]: binds.
AARYWDYDVFGGGTPQGE [PMP56B1]: binds.
AARYLDYDVFGGGTDVGS [PMP54F3]: binds.
AASYLDYDVFGGGTPFGE [PMP54H1]: binds.
AAAYLDYDVFGGGTPVGG [PMP56G5]: binds.
AAWYFDYDVFGGGTADGE [PMP56H6]: binds.
AARYYDYDVFGGGTRSGE [PMP54C1]: binds.
AAWYFDYDVFGGGTADGE [PMP56F3]: binds.
AAFYWDYDVFGGGTDPGA [PMP56H3]: binds.
AAVYDDYDVFGGGTPVGG [PMP56B3]: binds.
AALYRDYDVFGGGTPVGG [PMP56F6]: binds.
AALYRDYDVFGGGTPVGG [PMP56B5]: binds.
AAYYYDYDVFGGGTPGGE [PMP56E1]: binds.
AALYGDYDVFGGGTPLGE [PMP54F2]: binds.
AARYLDYDVFGGGTQLGS [PMP54D3]: binds.
AAAYWDYDVFGGGTSAGT [PMP54H2]: binds.
AAIYRDYDVFGGGTPLGQ [PMP54G2]: binds.
AARYYDYDVFGGGTAGGQ [PMP56A6]: binds.
AARYFDYDVFGGGTPAGD [PMP56B2]: binds.
AAPYHDYDVFGGGTPVGE [PMP56A2]: binds.
AATYYDYDVFGGGTPLGQ [PMP56D5]: binds.
AAFYRDYDVFGGGTGSGN [PMP54E1]: binds.
AAYYRDYDVFGGGTPVGE [PMP56A5]: binds.
AARYPDYDVFGGGTPVGG [PMP54C2]: binds.
AARYPDYDVFGGGTPSGG [PMP56C6]: binds.
AASYRDYDVFGGGTPRGW [PMP54H3]: binds.
AARYYDYDVFGGGTPLGG [PMP56E6]: binds.
AARYYDYDVFGGGTPLGA [PMP56E5]: binds.
AARYYDYDVFGGGTPLGA [PMP56C3]: binds.
AARYYDYDVFGGGTPLGA [PMP56E3]: binds.
AARYLDYDVFGGGTPIGE [PMP54C3]: binds.
AADYYDYDVFGGGTSVGE [PMP56A1]: binds.
AARYYDYDVFGGGTPLGG [PMP56F5]: binds.
AAVYWDYDVFGGGTSLGD [PMP56B6]: binds.
AARYWDYDVFGGGTDPGG [PMP56G2]: binds.
AAWYRDYDVFGGGTPLGA [PMP56H1]: binds.
